Earlier results as cited in patent publication US7338947B2, “Cyclic derivatives as modulators of chemokine receptor activity” (Bristol-Myers Squibb Co., priority 2003, dated 2008).

System: MCP-1 expression in peripheral blood mononuclear cells
Conditions: human multiple sclerosis, effective therapy

B1: interferon b-1b: interferon b-1b, effective therapy in human multiple sclerosis (protein, UniProt P01574 22-187, looked up, variant C17S)
Interferon beta: MSYNLLGFLQRSSNFQSQKLLWQLNGRLEYCLKDRMNFDIPEEIKQLQQFQKEDAALTIYEMLQNIFAIFRQDSSSTGWNETIVENLLANVYHQINHLKTVLEEKLEKEDFTRGKLMSSLHLKRYYGRILHYLKAKEYSHCAWTIVRVEILRNFYFINRLTGYLRN
modifications: interferon beta-1b
MCP-1 expression in peripheral blood mononuclear cells: reduces MCP-1 expression
